Source: patent US20150140683A1

Legend:
[1] = target: antibody captured on the human Fab capture surface (unnamed IgG); assay: SPR (BIAcore), antibody captured via human Fab capture kit, 50 nM receptor injected, 25 C
[2] = target: antibody captured on the human Fab capture surface (unnamed IgG); assay: SPR (BIAcore), antibody captured via human Fab capture kit, 50 nM fusion polypeptide injected, 25 C

Row | Substance | response units [1] | response units [2]
1 | FcgammaRIIIaV158 (intact HisAvi-tag comprising functional variant of FcgRIIIa) (receptor) | 40 RU | 
2 | FcgammaRIIIaV158-Avi-IgA Protease-Fc LALA P329G fusion polypeptide (Fc fusion) |  | > 100 RU
